Test results taken from US12698494.

T1: FRETS-VWF73 fluorogenic substrate, P04275
T1 chain: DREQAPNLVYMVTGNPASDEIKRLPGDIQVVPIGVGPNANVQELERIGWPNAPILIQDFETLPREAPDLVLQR

B1: ADAMTS13 variant NGLY7 (664EYGNLT669 to 664ENVTLT669; glycan shift from N667 to Y665) (protein)
chain: AAGGILHLELLVAVGPDVFQAHQEDTERYVLTNLNIGAELLRDPSLGAQFRVHLVKMVILTEPEGAPNITANLTSSLLSVCGWSQTINPEDDTDPGHADLVLYITRFDLELPDGNRQVRGVTQLGGACSPTWSCLITEDTGFDLGVTIAHEIGHSFGLEHDGAPGSGCGPSGHVMASDGAAPRAGLAWSPCSRRQLLSLLSAGRARCVWDPPRPQPGSAGHPPDAQPGLYYSANEQCRVAFGPKAVACTFAREHLDMCQALSCHTDPLDQSSCSRLLVPLLDGTECGVEKWCSKGRCRSLVELTPIAAVHGRWSSWGPRSPCSRSCGGGVVTRRRQCNNPRPAFGGRACVGADLQAEMCNTQACEKTQLEFMSQQCARTDGQPLRSSPGGASFYHWGAAVPHSQGDALCRHMCRAIGESFIMKRGDSFLDGTRCMPSGPREDGTLSLCVSGSCRTFGCDGRMDSQQVWDRCQVCGGDNSTCSPRKGSFTAGRAREYVTFLTVTPNLTSVYIANHRPLFTHLAVRIGGRYVVAGKMSISPNTTYPSLLEDGRVEYRVALTEDRLPRLEEIRIWGPLQEDADIQVYRRYGEENVTLTRPDITFTYFQPKPRQAWVWAAVRGPCSVSCGAGLRWVNYSCLDQARKELVETVQCQGSQQPPAWPEACVLEPCPPYWAVGDFGPCSASCGGGLRERPVRCVEAQGSLLKTLPPARCRAGAQQPAVALETCNPQPCPARWEVSEPSSCTSAGGAGLALENETCVPGADGLEAPVTEGPGSVDEKLPAPEPCVGMSCPPGWGHLDATSAGEKAPSPWGSIRTGAQAAHVWTPAAGSCSVSCGRGLMELRFLCMDSALRVPVQEELCGLASKPGSRREVCQAVPCPARWQYKLAACSVSCGRGVVRRILYCARAHGEDDGEEILLDTQCQGLPRPEPQEACSLEPCPPRWKVMSLGPCSASCGLGTARRSVACVQLDQGQDVEVDEAACAALVRPEASVPCLIADCTYRWHVGTWMECSVSCGDGIQRRRDTCLGPQAQAPVPADFCQHLPKPVTVRGCWAGPCVGQGTPSLVPHEEAAAPGRTTATPAGASLEWSQARGLLFSPAPQPRRLLPGPQENSVQSSACGRQHLEPTGTIDMRGPGQADCAVAIGRPLGEVVTLRVLESSLNCSAGDMLLLWGRLTWRKMCRKLLDMTFSSKTNTLVVRQRCGRPGGGVLLRYGSQLAPETFYRECDMQLFGPWGEIVSPSLSPATSNAGGCRLFINVAPHARIAIHALATNMGAGTEGANASYILIRDTHSLRTTAFHGQQVLYWESESSQAEMEFSEGFLKAQASLRGQYWTLQSWVPEMQDPQSWKGKEGT
B2: ADAMTS13 variant NGLY3 + NGLY7 (607GNMSI611/664ENVTLT669) (protein)
chain: AAGGILHLELLVAVGPDVFQAHQEDTERYVLTNLNIGAELLRDPSLGAQFRVHLVKMVILTEPEGAPNITANLTSSLLSVCGWSQTINPEDDTDPGHADLVLYITRFDLELPDGNRQVRGVTQLGGACSPTWSCLITEDTGFDLGVTIAHEIGHSFGLEHDGAPGSGCGPSGHVMASDGAAPRAGLAWSPCSRRQLLSLLSAGRARCVWDPPRPQPGSAGHPPDAQPGLYYSANEQCRVAFGPKAVACTFAREHLDMCQALSCHTDPLDQSSCSRLLVPLLDGTECGVEKWCSKGRCRSLVELTPIAAVHGRWSSWGPRSPCSRSCGGGVVTRRRQCNNPRPAFGGRACVGADLQAEMCNTQACEKTQLEFMSQQCARTDGQPLRSSPGGASFYHWGAAVPHSQGDALCRHMCRAIGESFIMKRGDSFLDGTRCMPSGPREDGTLSLCVSGSCRTFGCDGRMDSQQVWDRCQVCGGDNSTCSPRKGSFTAGRAREYVTFLTVTPNLTSVYIANHRPLFTHLAVRIGGRYVVAGNMSISPNTTYPSLLEDGRVEYRVALTEDRLPRLEEIRIWGPLQEDADIQVYRRYGEENVTLTRPDITFTYFQPKPRQAWVWAAVRGPCSVSCGAGLRWVNYSCLDQARKELVETVQCQGSQQPPAWPEACVLEPCPPYWAVGDFGPCSASCGGGLRERPVRCVEAQGSLLKTLPPARCRAGAQQPAVALETCNPQPCPARWEVSEPSSCTSAGGAGLALENETCVPGADGLEAPVTEGPGSVDEKLPAPEPCVGMSCPPGWGHLDATSAGEKAPSPWGSIRTGAQAAHVWTPAAGSCSVSCGRGLMELRFLCMDSALRVPVQEELCGLASKPGSRREVCQAVPCPARWQYKLAACSVSCGRGVVRRILYCARAHGEDDGEEILLDTQCQGLPRPEPQEACSLEPCPPRWKVMSLGPCSASCGLGTARRSVACVQLDQGQDVEVDEAACAALVRPEASVPCLIADCTYRWHVGTWMECSVSCGDGIQRRRDTCLGPQAQAPVPADFCQHLPKPVTVRGCWAGPCVGQGTPSLVPHEEAAAPGRTTATPAGASLEWSQARGLLFSPAPQPRRLLPGPQENSVQSSACGRQHLEPTGTIDMRGPGQADCAVAIGRPLGEVVTLRVLESSLNCSAGDMLLLWGRLTWRKMCRKLLDMTFSSKTNTLVVRQRCGRPGGGVLLRYGSQLAPETFYRECDMQLFGPWGEIVSPSLSPATSNAGGCRLFINVAPHARIAIHALATNMGAGTEGANASYILIRDTHSLRTTAFHGQQVLYWESESSQAEMEFSEGFLKAQASLRGQYWTLQSWVPEMQDPQSWKGKEGT
B3: ADAMTS13 variant NGLY3 + NGLY8 (607GNMSI611/667LNVTA671) (protein)
chain: AAGGILHLELLVAVGPDVFQAHQEDTERYVLTNLNIGAELLRDPSLGAQFRVHLVKMVILTEPEGAPNITANLTSSLLSVCGWSQTINPEDDTDPGHADLVLYITRFDLELPDGNRQVRGVTQLGGACSPTWSCLITEDTGFDLGVTIAHEIGHSFGLEHDGAPGSGCGPSGHVMASDGAAPRAGLAWSPCSRRQLLSLLSAGRARCVWDPPRPQPGSAGHPPDAQPGLYYSANEQCRVAFGPKAVACTFAREHLDMCQALSCHTDPLDQSSCSRLLVPLLDGTECGVEKWCSKGRCRSLVELTPIAAVHGRWSSWGPRSPCSRSCGGGVVTRRRQCNNPRPAFGGRACVGADLQAEMCNTQACEKTQLEFMSQQCARTDGQPLRSSPGGASFYHWGAAVPHSQGDALCRHMCRAIGESFIMKRGDSFLDGTRCMPSGPREDGTLSLCVSGSCRTFGCDGRMDSQQVWDRCQVCGGDNSTCSPRKGSFTAGRAREYVTFLTVTPNLTSVYIANHRPLFTHLAVRIGGRYVVAGNMSISPNTTYPSLLEDGRVEYRVALTEDRLPRLEEIRIWGPLQEDADIQVYRRYGEEYGLNVTADITFTYFQPKPRQAWVWAAVRGPCSVSCGAGLRWVNYSCLDQARKELVETVQCQGSQQPPAWPEACVLEPCPPYWAVGDFGPCSASCGGGLRERPVRCVEAQGSLLKTLPPARCRAGAQQPAVALETCNPQPCPARWEVSEPSSCTSAGGAGLALENETCVPGADGLEAPVTEGPGSVDEKLPAPEPCVGMSCPPGWGHLDATSAGEKAPSPWGSIRTGAQAAHVWTPAAGSCSVSCGRGLMELRFLCMDSALRVPVQEELCGLASKPGSRREVCQAVPCPARWQYKLAACSVSCGRGVVRRILYCARAHGEDDGEEILLDTQCQGLPRPEPQEACSLEPCPPRWKVMSLGPCSASCGLGTARRSVACVQLDQGQDVEVDEAACAALVRPEASVPCLIADCTYRWHVGTWMECSVSCGDGIQRRRDTCLGPQAQAPVPADFCQHLPKPVTVRGCWAGPCVGQGTPSLVPHEEAAAPGRTTATPAGASLEWSQARGLLFSPAPQPRRLLPGPQENSVQSSACGRQHLEPTGTIDMRGPGQADCAVAIGRPLGEVVTLRVLESSLNCSAGDMLLLWGRLTWRKMCRKLLDMTFSSKTNTLVVRQRCGRPGGGVLLRYGSQLAPETFYRECDMQLFGPWGEIVSPSLSPATSNAGGCRLFINVAPHARIAIHALATNMGAGTEGANASYILIRDTHSLRTTAFHGQQVLYWESESSQAEMEFSEGFLKAQASLRGQYWTLQSWVPEMQDPQSWKGKEGT
B4: ADAMTS13 variant NGLY8 (667NLTRP671 to 667LNVTA671; glycan shift from N667 to L668) (protein)
chain: AAGGILHLELLVAVGPDVFQAHQEDTERYVLTNLNIGAELLRDPSLGAQFRVHLVKMVILTEPEGAPNITANLTSSLLSVCGWSQTINPEDDTDPGHADLVLYITRFDLELPDGNRQVRGVTQLGGACSPTWSCLITEDTGFDLGVTIAHEIGHSFGLEHDGAPGSGCGPSGHVMASDGAAPRAGLAWSPCSRRQLLSLLSAGRARCVWDPPRPQPGSAGHPPDAQPGLYYSANEQCRVAFGPKAVACTFAREHLDMCQALSCHTDPLDQSSCSRLLVPLLDGTECGVEKWCSKGRCRSLVELTPIAAVHGRWSSWGPRSPCSRSCGGGVVTRRRQCNNPRPAFGGRACVGADLQAEMCNTQACEKTQLEFMSQQCARTDGQPLRSSPGGASFYHWGAAVPHSQGDALCRHMCRAIGESFIMKRGDSFLDGTRCMPSGPREDGTLSLCVSGSCRTFGCDGRMDSQQVWDRCQVCGGDNSTCSPRKGSFTAGRAREYVTFLTVTPNLTSVYIANHRPLFTHLAVRIGGRYVVAGKMSISPNTTYPSLLEDGRVEYRVALTEDRLPRLEEIRIWGPLQEDADIQVYRRYGEEYGLNVTADITFTYFQPKPRQAWVWAAVRGPCSVSCGAGLRWVNYSCLDQARKELVETVQCQGSQQPPAWPEACVLEPCPPYWAVGDFGPCSASCGGGLRERPVRCVEAQGSLLKTLPPARCRAGAQQPAVALETCNPQPCPARWEVSEPSSCTSAGGAGLALENETCVPGADGLEAPVTEGPGSVDEKLPAPEPCVGMSCPPGWGHLDATSAGEKAPSPWGSIRTGAQAAHVWTPAAGSCSVSCGRGLMELRFLCMDSALRVPVQEELCGLASKPGSRREVCQAVPCPARWQYKLAACSVSCGRGVVRRILYCARAHGEDDGEEILLDTQCQGLPRPEPQEACSLEPCPPRWKVMSLGPCSASCGLGTARRSVACVQLDQGQDVEVDEAACAALVRPEASVPCLIADCTYRWHVGTWMECSVSCGDGIQRRRDTCLGPQAQAPVPADFCQHLPKPVTVRGCWAGPCVGQGTPSLVPHEEAAAPGRTTATPAGASLEWSQARGLLFSPAPQPRRLLPGPQENSVQSSACGRQHLEPTGTIDMRGPGQADCAVAIGRPLGEVVTLRVLESSLNCSAGDMLLLWGRLTWRKMCRKLLDMTFSSKTNTLVVRQRCGRPGGGVLLRYGSQLAPETFYRECDMQLFGPWGEIVSPSLSPATSNAGGCRLFINVAPHARIAIHALATNMGAGTEGANASYILIRDTHSLRTTAFHGQQVLYWESESSQAEMEFSEGFLKAQASLRGQYWTLQSWVPEMQDPQSWKGKEGT

Columns and labels:
[1] = molecular target: T1, FRETS-VWF73 fluorogenic substrate, …
[2] = molecular target: Von Willebrand Factor (VWF) multimers, P04275

Row | Protein | Activity level (% relative to wild type ADAMTS13) VWFFRETS73 (% relative to wild type ADAMTS13) [1] | Ability to process VWF multimers under denaturing conditions [2] | vortex assay: processing of VWF multimers under shear stress [2] | FRETS-VWF73 activity relative to wild-type ADAMTS13 (text value, differs from Table 4) [1]
1 | B1 | 125 | +++++ | NGLY7 was clearly capable of processing the large VWF multimers | 
2 | B2 | 135 | +++++ | combination of NGLY3/NGLY7 retained proteolytic activity towards multimeric VWF | NGLY3 plus NGLY7 was 125% active when compared to the wild type
3 | B3 | 120 | ++ | Combinations of NGLY3/NGLY8 also revealed a reduced ability to process VWF multimers | NGLY3 plus NGLY8 was 75% active when compared to wild type ADAMTS13
4 | B4 | 76 | ++ | NGLY8 displayed a reduced ability to process VWF multimers when compared to NGLY3 and NGLY7 | NGLY8 was 75% active when compared to wild-type ADAMTS13
